Laboratory results published in patent US20250171505A1 (CENTRE NATIONAL DE LA RECHERCHE SCIENTIFIQUE CNRS, published 2025).

What was measured:
[1] = molecular target: T1, VSV Gth, soluble form of the ectodomain of G (amino acid residues 1-422, generated by thermolysine l (vesicular stomatitis virus, Indiana …, UniProt P03522 17-438))
T1 sequence: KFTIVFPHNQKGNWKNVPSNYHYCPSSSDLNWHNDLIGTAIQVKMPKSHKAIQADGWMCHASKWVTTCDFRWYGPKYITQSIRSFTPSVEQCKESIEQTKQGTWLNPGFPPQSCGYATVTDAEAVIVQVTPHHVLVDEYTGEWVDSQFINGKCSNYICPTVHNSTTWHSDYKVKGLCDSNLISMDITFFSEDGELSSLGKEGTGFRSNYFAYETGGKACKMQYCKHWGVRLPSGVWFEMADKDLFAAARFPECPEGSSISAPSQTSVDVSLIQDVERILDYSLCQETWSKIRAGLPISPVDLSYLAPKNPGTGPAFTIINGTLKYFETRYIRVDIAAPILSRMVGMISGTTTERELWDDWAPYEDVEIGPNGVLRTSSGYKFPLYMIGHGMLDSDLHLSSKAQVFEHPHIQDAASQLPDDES

[2] = molecular target: T1, VSV Gth, soluble form of the ectodomain …; test: ITC at 20 C, pH 8.0, CR domain injected into Gth
[3] = molecular target: T1, VSV Gth, soluble form of the ectodomain …; test: ITC at 20 C, pH 8.0

B1: CR2 monovalent domain of human LDL-R (isolated, GST removed) (receptor)
chain: not shown
notes: domain: CR2
Kd [1]: 7.3 µM
stoichiometry [2]: 1

B2: CR1 monovalent domain of human LDL-R (isolated, GST removed) (receptor)
chain: not shown
notes: domain: CR1
binding result [3]: no binding

B3: CR3 monovalent domain of human LDL-R (isolated, GST removed) (receptor)
chain: not shown
notes: domain: CR3
Kd [1]: 4.3 µM
stoichiometry [2]: 1
